In patent publication US20260176378A1 (DYAX, published 2026):

Biological target: T1, human plasma kallikrein (human, UniProt P03952 20-390; P03952 391-638)
T1 construct: two disulfide-linked chains; NP_000883.2; also called pKal; hpKal
Assay: ELISA, biotinylated pKal signal over streptavidin background

T1 sequence (P03952 20-390 limits assumed, chain 1 of 2): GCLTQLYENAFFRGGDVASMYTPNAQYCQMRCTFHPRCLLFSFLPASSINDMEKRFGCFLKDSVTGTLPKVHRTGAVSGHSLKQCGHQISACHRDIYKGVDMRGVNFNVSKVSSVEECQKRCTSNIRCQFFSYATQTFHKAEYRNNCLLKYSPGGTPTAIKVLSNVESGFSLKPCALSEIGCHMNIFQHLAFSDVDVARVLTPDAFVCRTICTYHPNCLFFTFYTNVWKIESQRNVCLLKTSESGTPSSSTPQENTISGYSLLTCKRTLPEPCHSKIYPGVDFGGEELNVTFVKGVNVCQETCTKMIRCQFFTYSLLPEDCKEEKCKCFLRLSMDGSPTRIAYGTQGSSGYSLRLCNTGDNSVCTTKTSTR
T1 sequence (P03952 391-638 limits assumed, chain 2 of 2): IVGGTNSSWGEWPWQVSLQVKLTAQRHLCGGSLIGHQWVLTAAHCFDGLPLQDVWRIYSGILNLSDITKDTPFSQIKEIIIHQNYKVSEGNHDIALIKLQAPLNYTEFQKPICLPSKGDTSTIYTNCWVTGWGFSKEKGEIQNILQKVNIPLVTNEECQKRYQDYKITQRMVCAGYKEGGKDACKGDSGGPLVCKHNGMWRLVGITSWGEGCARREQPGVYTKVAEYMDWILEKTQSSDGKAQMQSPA

| ELISA (T/B) | Binder |
| --- | --- |
| 16 | M6-D08 (Fab, V domains shown) VH: EVQLLESGGGLVQPGGSLRLSCAASGFTFSRYHMVWVRQAPGKGLEWVSSISPSGGWTNYADSVKGRFTISRDNSKNTLYLQMNSLRAEDTAMYYCAREMATIAGQFDPWGQGTLVTVSS VL: DIQMTQSPSSLSASVGDRVTITCRASQSISSYLNWYQQKPGKAPKLLIYGASSLQSGVPSRFSGSGSGTDFTLTISSLQPEDSATYYCQQSYTRWTFGQGTKVEIK |
| 11.8 | M76-G06 (Fab, V domains shown) VH: EVQLLESGGGLVQPGGSLRLSCAASGFTFSGYIMHWVRQAPGKGLEWVSWIYPSGGWTEYADSVKGRFTISRDNSKNTLYLQMNSLRAEDTAVYYCARDAPGVGAIDYWGQGTLVTVSS VL: DIQMTQSPSSLSASVRDRVTITCRASQSISTYLNWYQQKPGEAPKLLVFAASSLQSGVPSRFSGSGSGTDFTLSISSLQPEDFATYYCQQSYSTPHTFGQGAKVEIK |
| 29.3 | M28-E11 (Fab, V domains shown) VH: EVQLLESGGGLVQPGGSLRLSCAASGFTFSLYDMTWVRQAPGKGLEWVSGISSSGGVTIYADSVKGRFTISRDNSKNTLYLQMNSLRAEDTAVYYCARTYYYDSSGYADAFDIWGQGTMVTVSS VL: DIQMTQSPSSVSASVGDRVTINCRASQDISNWLAWYQQKPGKAPNLLIYAASSLQTGAPSRFSGSGSGTDFTLTISSLQPEDFGTYVCQQSYSLPWTFGLGTKVEVR |
| 40.4 | M29-G08 (Fab, V domains shown) VH: EVQLLESGGGLVQPGGSLRLSCAASGFTFSYYHMWWVRQAPGKGLEWVSGISPSGGFTFYADSVKGRFTISRDNSKNTLYLQMNSLRAEDTAVYYCARDYYYDSSGYSPLGYWGQGTLVTVSS VL: DIQMTQSPATLSASPGETVTLSCRASQNIGNDVAWYRQRPGQAPRLLIHHASTRAYGIPARLRGSGSATEFTLTITSLEPEDFAIYYCQQFYDWPAHTFALGTRLEIKR |
| 8.6 | M74-A07 (Fab, V domains shown) VH: EVQLLESGGGLVQPGGSLRLSCAASGFTFSQYLMMWVRQAPGKGLEWVSSIYPSGGYTSYADSVKGRFTISRDNSKNTLYLQMNSLRAEDTAVYYCARVSTAVADNDYWGQGTLVTVSS VL: DIQMTQSPSSLSASVRDRVTITCRTSQNINTYLNWYYQAPGRAPKLLIFGVSSLHRGVSSRFSGSGDGTEFTLTISSLQPEDIGTYFCQQSYSSPWTFGQGTKVEIK |
| 11.7 | M6-A06 (Fab, V domains shown) VH: EVQLLESGGGLVQPGGSLRLSCAASGFTFSLYQMTWVRQAPGKGLEWVSGIWPSGGFTDYADSVKGRFTISRDNSKNTLYLQMNSLRAEDTAVYYCARVSTAVADNDYWGQGTLVTVSS VL: DIQMTQSPSSLSASVGDSVTISCRASQSISMYLNWYQHKPGKAPKLLIYGTSSLQSGVPSRFSGSGPGGTDFTLTISSLQPEDFATYYCQQSYSAPWTFGQGTKVEIK |
| 15.5 | M6-D03 (Fab, V domains shown) VH: EVQLLESGGGLVQPGGSLRLSCAASGFTFSKYFMGWVRQAPGKGLEWVSVIGSSGGWTSYADSVKGRFTISRDNSKNTLYLQMNSLRAEDTAVYYCARVSTAVADNDYWGQGTLVTVSS VL: not shown |
| 41.6 | M28-D12 (Fab, V domains shown) VH: EVQLLESGGGLVQPGGSLRLSCAASGFTFSWYTMHWVRQAPGKGLEWVSVIYPSGGPTSYADSVKGRFTISRDNSKNTLYLQMNSLRAEDTATYYCARDGSGSYLGFDYWGQGTLVTVSS VL: DIQMTQSPSSLSASVGDRVTITCRASQSIATYLNWYQQKPGRAPKLLIYAASSLQSGVPSRFVGGGSGSGTHFTLTISSLQPEDFATYYCQQSYSTRETFGQGTKVEIK |
| 19 | M28-A01 (Fab, V domains shown) VH: EVQLLESGGGLVQPGGSLRLSCAASGFTFSWYAMHWVRQAPGKGLEWVSGIYSSGGYTKYADSVKGRFTISRDNSKNTLYLQMNSLRAEDTAVYYCARDLSNGDDVFDIWGQGTMVTVSS VL: not shown |
| 23.6 | M29-D10 (Fab, V domains shown) VH: EVQLLESGGGLVQPGGSLRLSCAASGFTFSWYPMYWVRQAPGKGLEWVSSIGSSGGPTPYADSVKGRFTISRDNSKNTLYLQMNSLRAEDTAVYYCARWADYGGSLDYWGQGTLVTVSS VL: DIQMTQSPSSLSASVGDTVSITCRASQSITIYLNWYQHKPGKAPNLLIYGASNLHSGVPSRFSGSGSGTDFTLTISSLQPEDFATYYCQQSYDTPLTFGGGTKVEIK |
| 23.4 | M6-A08 (Fab, V domains shown) VH: EVQLLESGGGLVQPGGSLRLSCAASGFTFSPYPMQWVRQAPGKGLEWVSSISSSGGMTEYADSVKGRFTISRDNSKNTLYLQMNSLRAEDTAVYYCARDDYGGKGGAFDIWGQGTMVTVSS VL: DIQMTQSPSSLSASVGDRVTITCRASQRISFYLNWFQQKPGKAPNLLIYGASSLQSGVPSRFSGSGSGTDFTLTISSLQPKDFGTYYCQQTFSTPNTFGQGTKLEIK |
| 2 | M29-E02 (Fab, V domains shown) VH: EVQLLESGGGLVQPGGSLRLSCAASGFTFSRYPMMWVRQAPGKGLEWVSVIYPSGGDTFYADSVKGRFTISRDNSKNTLYLQMNSLRAEDTAVYYCASGDDYLWEAAVYWGQGTLVTVSS VL: QSVLTQPPSVSEAPRQRVTISCSGSSSNIGNNAVSWYQQLPGKAPKLLIYYDDLLPSGVSDRFSGSKSGTSASLAISGLRSEDEADYYCAAWDDSLNGFVFGTGTKVTVL |
| 1.5 | M28-F01 (Fab, V domains shown) VH: EVQLLESGGGLVQPGGSLRLSCAASGFTFSVYLMHWVRQAPGKGLEWVSGISPSGGYTQYADSVKGRFTISRDNSKNTLYLQMNSLRAEDTAVYYCARPGGLDAFDIWGQGTMVTVSS VL: DIQMTQSPSSLSASVGDRVTITCRASQSINTYLNWYQQKPGKAPKVLIHAASTLESGVPSRFSGSGSGTDFTLTISSLQPEDFATYYCQQSYSTPPTFGQGTKVEIK |
| 6.4 | M76-F02 (Fab, V domains shown) VH: EVQLLESGGGLVQPGGSLRLSCAASGFTFSLYDMNWVRQAPGKGLEWVSGISPSGGQTMYADSVKGRFTISRDNSKNTLYLQMNSLRAEDTAVYYCARQPMISAFDIWGQGTMVTVSS VL: DIQMTQSPSSLSASVGDRVTITCRASQTIDNYLHWYQQKPGKAPKVLIHDASSLQSGVPPRFSGSGSGTDFTLTISSLQPEDFATYYCQQSYDTPQYTFGQGTKLEIK |
| 10.3 | M76-G02 (Fab, V domains shown) VH: EVQLLESGGGLVQPGGSLRLSCAASGFTFSLYAMWWVRQAPGKGLEWVSYISSSGGFTSYADSVKGRFTISRDNSKNTLYLQMNSLRAEDTAVYYCARYRVGVAATDYWGQGTLVTVSS VL: not shown |
| 16.4 | M29-G10 (Fab, V domains shown) VH: EVQLLESGGGLVQPGGSLRLSCAASGFTFSFYKMIWVRQAPGKGLEWVSSISSSGGSTQYADSVKGRFTISRDNSKNTLYLQMNSLRAEDTAVYYCARDRVDLGYLDYWGQGTLVTVSS VL: DIQMTQSPSSLSSSVGDSATITCRASQSISIYLNWYQQKPGKAPKILIYGASQLESGVPSRFSGSGSGTDFTLTVSGLQPEDFATYWCQQSYNVPYTFGQGTKLEIK |
| 41 | M28-E01 (Fab, V domains shown) VH: EVQLLESGGGLVQPGGSLRLSCAASGFTFSSYPMGWVRQAPGKGLEWVSRISSSGGMTIYADSVKGRFTISRDNSKNTLYLQMNSLRAEDTAVYYCARDDWNVGMDVWGQGTTVTVSS VL: DIQMTQSPSSLSASVGDRVTITCRASQSISSYLNWYQQKPGKAPKLLIYAASSLQSGVPSKFSGSGSGTDYTLTISSLQPEDFATYYCQQTYTTPWTFGQGTKVEIK |
| 16.1 | M77-C07 (Fab, V domains shown) VH: EVQLLESGGGLVQPGGSLRLSCAASGFTFSLYIMGWVRQAPGKGLEWVSGIYPSGGFTMYADSVKGRFTISRDNSKNTLYLQMNSLRAEDTAVYYCARESSGVAAPDYWGQGTLVTVSS VL: DIQMTQSPSTLSASVGDRVTITCRASQNISSYLNWYQQKPGKAPKLLIYAASSLQSGVPSRFSGSGSGTDFTLTISSLQPEDFATYSCQQSYSTPRTFGQGTKVEIK |
| 3.7 | M28-D02 (Fab, V domains shown) VH: EVQLLESGGGLVQPGGSLRLSCAASGFTFSWYPMQWVRQAPGKGLEWVSYIYPSGGGTDYADSVKGRFTISRDNSKNTLYLQMNSLRAEDTATYYCATSSGWLGDAFDIWGQGTMVTVSS VL: DIQMTQSPSSLSASEGDMVTITCRTSRRIGTYLNWYQQKPGKAPKLLIYGASSLQSGVPSRFSGSGSGTDFTLTVSSLQPEDVGTYYCQQSFSSPWTFGPGTKVEIK |
| 13.4 | M76-H02 (Fab, V domains shown) VH: EVQLLESGGGLVQPGGSLRLSCAASGFTFSMYWMQWVRQAPGKGLEWVSYIYPSGGPTKYADSVKGRFTISRDNSKNTLYLQMNSLRAEDTAVYYCARPSGSYGDAFDIWGQGTMVTVSS VL: DIQMTQSPSSLSASEGDRVTITCRASQDISVYLNWYQMKSGKAPKLLIYGGASLQSGVPARFSGSGYGTDFTLTITDLRPEDFATYYCQQSYSLPFTFGGGTKVEIK |
| 5.2 | M29-C07 (Fab, V domains shown) VH: EVQLLESGGGLVQPGGSLRLSCAASGFTFSGYDMMWVRQAPGKGLEWVSVISSSGGNTAYADSVKGRFTISRDNSKNTLYLQMNSLRAEDTAVYYCARESSGLYYFDYWGQGTLVTVSS VL: not shown |
| 33 | M28-F07 (Fab, V domains shown) VH: EVQLLESGGGLVQPGGSLRLSCAASGFTFSDYTMYWVRQAPGKGLEWVSSIVPSGGHTLYADSVKGRFTISRDNSKNTLYLQMNSLRAEDTAVYYCAKDHLSSWYGGFFDYWGQGTLVTVSS VL: DIQMTQSPSSVSASVGDRVTITCRASQGISSWLAWYQQKPGKAPKLLIYATSGLQSGVPSRFSGSGSGTDFTLTISSLQPEDFATYYCQQAKSFPLTFGGGTRVEIK |
| 7.6 | M77-H04 (Fab, V domains shown) VH: EVQLLESGGGLVQPGGSLRLSCAASGFTFSYYTMIWVRQAPGKGLEWVSGIRSSGGGTRYADSVKGRFTISRDNSKNTLYLQMNSLRAEDTAVYYCAKDGSRYSYGSIYYYYGMDAWGQGTTVTVSS VL: not shown |
| 2.2 | M28-C03 (Fab, V domains shown) VH: EVQLLESGGGLVQPGGSLRLSCAASGFTFSYYQMGWVRQAPGKGLEWVSSIYPSGGMTDYADSVKGRFTISRDNSKNTLYLQMNSLRAEDTAVYYCTRGSPWGDDAFDIWGQGTMVTVSS VL: DIQMTQSPSSLSASVGDRVTITCRASQSINFYLNWYQQKPGKAPKLLIYVASSLESGVPSRFSGSASGTEFTLTISSLQPEDFATYYCLQSYSAPYTFGQGTKVEIT |
